B1: MYBL2 (parent)
chain: VKKSCWTEEEDRIICEAHKVLGNR
B2: PLD5 (parent)
chain: VTYMNMTAYNKGRLQSSFWIVDKQ
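Further: lentivirally expressed fusions sorted by FACS into six bins by GFP to DsRed ratio, PSI derived from sequencing read proportions per bin multiplied by bin number.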

Variants of: B1
Assay: protein stability index of a GFP-peptide fusion (GPS, HEK-293T) (PSI 1-6); higher = more stable
Conditions: c terminus: a fixed tail appended
VKMSCWTEEEDRIICEAHKVLGNR [K3M] showed a protein stability index of 2.78. In the case of VKGSCWTEEEDRIICEAHKVLGNR [K3G], the protein stability index is reported as 3.38. For VKNSCWTEEEDRIICEAHKVLGNR [K3N], the protein stability index was 2.78. Variant VKISCWTEEEDRIICEAHKVLGNR [K3I] has a protein stability index of 2.4. Variant VKSSCWTEEEDRIICEAHKVLGNR [K3S] has a protein stability index of 3.12. Work on VKASCWTEEEDRIICEAHKVLGNR [K3A] yielded a protein stability index of 3.43. In the case of VKFSCWTEEEDRIICEAHKVLGNR [K3F], the protein stability index is reported as 2.69. VKESCWTEEEDRIICEAHKVLGNR [K3E] showed a protein stability index of 4.1. With VKDSCWTEEEDRIICEAHKVLGNR [K3D] the protein stability index was 3.54. VKCSCWTEEEDRIICEAHKVLGNR [K3C] showed a protein stability index of 2.39. In the case of VKHSCWTEEEDRIICEAHKVLGNR [K3H], the protein stability index is reported as 3.26. VKTSCWTEEEDRIICEAHKVLGNR [K3T] gave a protein stability index of 2.76. Variant VKVSCWTEEEDRIICEAHKVLGNR [K3V] has a protein stability index of 2.52. For VKLSCWTEEEDRIICEAHKVLGNR [K3L], the protein stability index was 2.49. For VKQSCWTEEEDRIICEAHKVLGNR [K3Q], the protein stability index was 3.27. Variant VKPSCWTEEEDRIICEAHKVLGNR [K3P] has a protein stability index of 3.14. Variant VKRSCWTEEEDRIICEAHKVLGNR [K3R] has a protein stability index of 3.3. DKKSCWTEEEDRIICEAHKVLGNR [V1D] gave a protein stability index of 3.35. Work on EKKSCWTEEEDRIICEAHKVLGNR [V1E] yielded a protein stability index of 3.07. SKKSCWTEEEDRIICEAHKVLGNR [V1S] showed a protein stability index of 3.35. Work on PKKSCWTEEEDRIICEAHKVLGNR [V1P] yielded a protein stability index of 3.66. In the case of QKKSCWTEEEDRIICEAHKVLGNR [V1Q], the protein stability index is reported as 3.23. With NKKSCWTEEEDRIICEAHKVLGNR [V1N] the protein stability index was 3.33. For AKKSCWTEEEDRIICEAHKVLGNR [V1A], the protein stability index was 3.19. In the case of YKKSCWTEEEDRIICEAHKVLGNR [V1Y], the protein stability index is reported as 2.71. For IKKSCWTEEEDRIICEAHKVLGNR [V1I], the protein stability index was 3.23. In the case of FKKSCWTEEEDRIICEAHKVLGNR [V1F], the protein stability index is reported as 2.87. MKKSCWTEEEDRIICEAHKVLGNR [V1M] showed a protein stability index of 3.32. Work on CKKSCWTEEEDRIICEAHKVLGNR [V1C] yielded a protein stability index of 3.04. With RKKSCWTEEEDRIICEAHKVLGNR [V1R] the protein stability index was 3.9. TKKSCWTEEEDRIICEAHKVLGNR [V1T] showed a protein stability index of 3.78. Work on KKKSCWTEEEDRIICEAHKVLGNR [V1K] yielded a protein stability index of 3.34. With WKKSCWTEEEDRIICEAHKVLGNR [V1W] the protein stability index was 3.12. GKKSCWTEEEDRIICEAHKVLGNR [V1G] gave a protein stability index of 3.32. With HKKSCWTEEEDRIICEAHKVLGNR [V1H] the protein stability index was 3.69. With LKKSCWTEEEDRIICEAHKVLGNR [V1L] the protein stability index was 3.02. With VEKSCWTEEEDRIICEAHKVLGNR [K2E] the protein stability index was 3.19. In the case of VYKSCWTEEEDRIICEAHKVLGNR [K2Y], the protein stability index is reported as 3.35. For VQKSCWTEEEDRIICEAHKVLGNR [K2Q], the protein stability index was 3.6. VDKSCWTEEEDRIICEAHKVLGNR [K2D] showed a protein stability index of 4.25. In the case of VGKSCWTEEEDRIICEAHKVLGNR [K2G], the protein stability index is reported as 3.46. VFKSCWTEEEDRIICEAHKVLGNR [K2F] showed a protein stability index of 2.86. For VRKSCWTEEEDRIICEAHKVLGNR [K2R], the protein stability index was 3.54. Work on VNKSCWTEEEDRIICEAHKVLGNR [K2N] yielded a protein stability index of 3.43. Variant VCKSCWTEEEDRIICEAHKVLGNR [K2C] has a protein stability index of 2.31. For VVKSCWTEEEDRIICEAHKVLGNR [K2V], the protein stability index was 2.76. With VIKSCWTEEEDRIICEAHKVLGNR [K2I] the protein stability index was 2.89. For VWKSCWTEEEDRIICEAHKVLGNR [K2W], the protein stability index was 2.3. VSKSCWTEEEDRIICEAHKVLGNR [K2S] showed a protein stability index of 3.8. Work on VMKSCWTEEEDRIICEAHKVLGNR [K2M] yielded a protein stability index of 2.92. Variant VTKSCWTEEEDRIICEAHKVLGNR [K2T] has a protein stability index of 2.97. For VLKSCWTEEEDRIICEAHKVLGNR [K2L], the protein stability index was 2.98. Work on VHKSCWTEEEDRIICEAHKVLGNR [K2H] yielded a protein stability index of 3.25. Work on VAKSCWTEEEDRIICEAHKVLGNR [K2A] yielded a protein stability index of 3.28. In the case of VPKSCWTEEEDRIICEAHKVLGNR [K2P], the protein stability index is reported as 3.47.

Variants of: B2
Assay: as above
Conditions: c terminus: a fixed tail appended
VTYMNMTAYNKGRLQSSGWIVDKQ [F18G] showed a protein stability index of 2.31. VTYMNMTAYNKGRLQSSPWIVDKQ [F18P] gave a protein stability index of 2.02. Work on VTYMNMTAYNKGRLQSSWWIVDKQ [F18W] yielded a protein stability index of 1.24. Work on VTYMNMTAYNKGRLQSSYWIVDKQ [F18Y] yielded a protein stability index of 1.8. VTYMNMTAYNKGRLQSSVWIVDKQ [F18V] gave a protein stability index of 2.57. With VTYMNMTAYNKGRLQSSEWIVDKQ [F18E] the protein stability index was 2.2. VTYMNMTAYNKGRLQSSMWIVDKQ [F18M] gave a protein stability index of 2.26. VTYMNMTAYNKGRLQSSNWIVDKQ [F18N] gave a protein stability index of 1.67. VTYMNMTAYNKGRLQSSHWIVDKQ [F18H] gave a protein stability index of 1.48. Work on VTYMNMTAYNKGRLQSSDWIVDKQ [F18D] yielded a protein stability index of 2.07. Work on VTYMNMTAYNKGRLQSSRWIVDKQ [F18R] yielded a protein stability index of 1.82. VTYMNMTAYNKGRLQSSAWIVDKQ [F18A] gave a protein stability index of 2.89. VTYMNMTAYNKGRLQSSTWIVDKQ [F18T] gave a protein stability index of 1.74. VTYMNMTAYNKGRLQSSSWIVDKQ [F18S] gave a protein stability index of 2.07. VTYMNMTAYNKGRLQSSCWIVDKQ [F18C] gave a protein stability index of 2.26. VTYMNMTAYNKGRLQSSLWIVDKQ [F18L] showed a protein stability index of 2.32. VTYMNMTAYNKGRLQSSQWIVDKQ [F18Q] showed a protein stability index of 1.8. VTYMNMTAYNKGRLQSSKWIVDKQ [F18K] gave a protein stability index of 1.8. For VTYMNMTAYNKGRLQSSFWMVDKQ [I20M], the protein stability index was 3.68. VTYMNMTAYNKGRLQSSFWEVDKQ [I20E] gave a protein stability index of 2.23. For VTYMNMTAYNKGRLQSSFWTVDKQ [I20T], the protein stability index was 1.4. Work on VTYMNMTAYNKGRLQSSFWSVDKQ [I20S] yielded a protein stability index of 2.09. For VTYMNMTAYNKGRLQSSFWCVDKQ [I20C], the protein stability index was 1.76. Variant VTYMNMTAYNKGRLQSSFWHVDKQ [I20H] has a protein stability index of 2.41. VTYMNMTAYNKGRLQSSFWLVDKQ [I20L] gave a protein stability index of 1.22. For VTYMNMTAYNKGRLQSSFWPVDKQ [I20P], the protein stability index was 1.7. For VTYMNMTAYNKGRLQSSFWKVDKQ [I20K], the protein stability index was 2.27. Variant VTYMNMTAYNKGRLQSSFWQVDKQ [I20Q] has a protein stability index of 1.97. Variant VTYMNMTAYNKGRLQSSFWRVDKQ [I20R] has a protein stability index of 1.51. VTYMNMTAYNKGRLQSSFWDVDKQ [I20D] showed a protein stability index of 1.33. For VTYMNMTAYNKGRLQSSFWAVDKQ [I20A], the protein stability index was 1.41. Variant VTYMNMTAYNKGRLQSSFWGVDKQ [I20G] has a protein stability index of 1.25. In the case of VTYMNMTAYNKGRLQSSFWWVDKQ [I20W], the protein stability index is reported as 2.26. VTYMNMTAYNKGRLQSSFWNVDKQ [I20N] showed a protein stability index of 1.91. In the case of VTYMNMTAYNKGRLQSSFWYVDKQ [I20Y], the protein stability index is reported as 2.98. Work on VTYMNMTAYNKGRLWSSFWIVDKQ [Q15W] yielded a protein stability index of 2.58. VTYMNMTAYNKGRLQSSFWIGDKQ [V21G] gave a protein stability index of 1.53. VTYMNMTAYNKGRLQSSFWIYDKQ [V21Y] gave a protein stability index of 1.81. VTYMNMTAYNKGRLQSSFWILDKQ [V21L] showed a protein stability index of 2.21.

Source: the supplement of paper PMC10567573
